Where two headings read alike, the source gives them in different places.
Key:
[1] = biological target: CR8071 lambda light chain L1 with S176E_Y178E; test: SMCA System C: four chains co-expressed, protein A, LC-MS
[2] = biological target: CR8071 lambda light chain E124Q_T131R (L1 of design 3025, system C); test: SMCA LC-MS
[3] = biological target: CR8071 lambda light chain K129T_S180E (L1 of design 3878, system C); test: SMCA LC-MS
[4] = biological target: CR8071 lambda light chain V133D_Y178T (L1 of designs 3113 and 3122, system C); test: SMCA LC-MS
[5] = biological target: CR8071 lambda light chain V133D_Y178T (L1 of designs 3113 and 3122, system C); test: SMCA LC-MS; remark: listed apart in the source
[6] = biological target: Design 3890 L1: CR8071 lambda light chain S122D_K129T_S180E; test: SMCA: H1, L1, H2, L2 co-expressed, protein A, LC-MS
[7] = biological target: Design 3890 L2: SGN-CD19a kappa light chain S121K_Q124R_T178R; test: as above
[8] = biological target: Design 3898 L1: CR8071 lambda light chain K129T_Y178E_S180E; test: as above
[9] = biological target: Design 3898 L2: SGN-CD19a kappa light chain Q124R_T178R; test: as above
[10] = biological target: Design 3898 L2: SGN-CD19a kappa light chain Q124R_T178R; test: as above; remark: listed apart in the source
[11] = biological target: Design 3931 L2: SGN-CD19a kappa light chain V133G_S176D; test: as above
[12] = biological target: Design 3931 L2: SGN-CD19a kappa light chain V133G_S176D; test: as above; remark: listed apart in the source
[13] = biological target: Design 3947 L1: CR8071 lambda light chain K129T_Y178D; test: as above
[14] = biological target: SGN-CD19a kappa light chain L2 with S131R_V133G_S176R; test: SMCA System B: four chains co-expressed, protein A, LC-MS
[15] = biological target: SGN-CD19a kappa light chain L2 with S131R_V133G_S176R; test: SMCA System C: four chains co-expressed, protein A, LC-MS
[16] = biological target: SGN-CD19a kappa light chain L2 with V133G_S176D; test: SMCA System B: four chains co-expressed, protein A, LC-MS
[17] = biological target: SGN-CD19a kappa light chain L2 with V133G_S176D; test: SMCA System C: four chains co-expressed, protein A, LC-MS
[18] = biological target: SGN-CD19a kappa light chain L2 with V133G_S176D_T178E; test: SMCA System B: four chains co-expressed, protein A, LC-MS
[19] = biological target: SGN-CD19a kappa light chain L2 with V133G_S176D_T178E; test: SMCA System C: four chains co-expressed, protein A, LC-MS
[20] = biological target: SGN-CD19a kappa light chain L2 with V133G_S176D_T180E; test: SMCA System B: four chains co-expressed, protein A, LC-MS
[21] = biological target: SGN-CD19a kappa light chain L2 with V133G_S176D_T180E; test: SMCA System C: four chains co-expressed, protein A, LC-MS
[22] = biological target: SGN-CD19a kappa light chain S176K_T178K (L2 of design 3122, systems B and C); test: SMCA LC-MS
[23] = biological target: SGN-CD19a kappa light chain S176K_T178K (L2 of design 3122, systems B and C); test: SMCA LC-MS; remark: listed apart in the source
[24] = biological target: SGN-CD19a kappa light chain S131R_V133G_S176R (L2 of designs 3102 and 3113, systems B and C); test: SMCA LC-MS
[25] = biological target: SGN-CD19a kappa light chain S131R_V133G_S176R (L2 of designs 3102 and 3113, systems B and C); test: SMCA LC-MS; remark: listed apart in the source
[26] = biological target: SGN-CD19a kappa light chain S131R_V133G_S176R (L2 of designs 3102 and 3113, systems B and C); test: SMCA LC-MS; remark: listed apart in the source
[27] = biological target: SGN-CD19a kappa light chain S131R_V133G_S176R (L2 of designs 3102 and 3113, systems B and C); test: SMCA LC-MS; remark: listed apart in the source
[28] = biological target: SGN-CD19a kappa light chain S121K_Q124R_T178R (L2 of design 3890, system B); test: SMCA LC-MS
[29] = biological target: SGN-CD19a kappa light chain Q124R_Q160K_T178R (L2 of design 3878, systems B and C); test: SMCA LC-MS
[30] = biological target: SGN-CD19a kappa light chain Q124R_Q160K_T178R (L2 of design 3878, systems B and C); test: SMCA LC-MS; remark: listed apart in the source
[31] = biological target: SGN-CD19a kappa light chain S131D_V133G_T178F (L2 of design 3025, systems B and C); test: SMCA LC-MS
[32] = biological target: SGN-CD19a kappa light chain S131D_V133G_T178F (L2 of design 3025, systems B and C); test: SMCA LC-MS; remark: listed apart in the source

Substance: CR8071 heavy chain H1 with S188K
- % H1L1 Pairing [1]: 94.5%
- Change in % H1L1 Pairing with respect to wild type [1]: 12.2%

Substance: CR8071 heavy chain L143D_K145T (H1 of design 3025, system C)
- % H1L1 Pairing [2]: 43.9%
- Change in % H1L1 Pairing with respect to wild type [2]: -4.5%

Substance: CR8071 heavy chain Q179K (H1 of design 3878, system C)
- % H1L1 Pairing [3]: 99.3%
- Change in % H1L1 Pairing with respect to wild type [3]: 17%

Substance: CR8071 heavy chain S186K_S188T (H1 of designs 3113 and 3122, system C)
- % H1L1 Pairing [4]: 65.8%
- Change in % H1L1 Pairing with respect to wild type [4]: -16.5%
- % H1L1 Pairing [5]: 76.7%
- Change in % H1L1 Pairing with respect to wild type [5]: -5.6%

Substance: Design 3890 H1: CR8071 heavy chain A125R_Q179K
- % H1L1 Pairing [6]: 98.4%
- Change in % H1L1 Pairing with respect to wild type [6]: 30.3%

Substance: Design 3890 H2: SGN-CD19a heavy chain L143E_K145T_K228D
- % H2L2 Pairing [7]: 88.5%
- Change in % H2L2 Pairing with respect to wild type [7]: 17.2%

Substance: Design 3898 H1: CR8071 heavy chain Q179K
- % H1L1 Pairing [8]: 97.4%
- Change in % H1L1 Pairing with respect to wild type [8]: 15.1%

Substance: Design 3898 H2: SGN-CD19a heavy chain L143E_K145T_Q179E
- % H2L2 Pairing [9]: 74.5%
- Change in % H2L2 Pairing with respect to wild type [9]: 36.9%
- % H2L2 Pairing [10]: 95.2%
- Change in % H2L2 Pairing with respect to wild type [10]: 35.3%

Substance: Design 3931 H2: SGN-CD19a heavy chain L124R
- % H2L2 Pairing [11]: 83.6%
- Change in % H2L2 Pairing with respect to wild type [11]: 29.4%
- % H2L2 Pairing [12]: 99.5%
- Change in % H2L2 Pairing with respect to wild type [12]: 19.9%

Substance: Design 3947 H1: CR8071 heavy chain S188K
- % H1L1 Pairing [13]: 91.3%
- Change in % H1L1 Pairing with respect to wild type [13]: 23.2%

Substance: SGN-CD19a heavy chain H2 with L124E_K145T_Q179E
- % H2L2 Pairing [14]: 77.3%
- Change in % H2L2 Pairing with respect to wild type [14]: 39.7%
- % H2L2 Pairing [15]: 99.5%
- Change in % H2L2 Pairing with respect to wild type [15]: 39.6%

Substance: SGN-CD19a heavy chain H2 with L124R
- % H2L2 Pairing [16]: 94.6%
- Change in % H2L2 Pairing with respect to wild type [16]: 40.4%
- % H2L2 Pairing [17]: 99.5%
- Change in % H2L2 Pairing with respect to wild type [17]: 19.9%

Substance: SGN-CD19a heavy chain H2 with L124R_S186K
- % H2L2 Pairing [18]: 98.8%
- Change in % H2L2 Pairing with respect to wild type [18]: 44.6%
- % H2L2 Pairing [19]: 99.6%
- Change in % H2L2 Pairing with respect to wild type [19]: 20%

Substance: SGN-CD19a heavy chain H2 with L124R_S186R
- % H2L2 Pairing [20]: 98.6%
- Change in % H2L2 Pairing with respect to wild type [20]: 44.4%
- % H2L2 Pairing [21]: 99.5%
- Change in % H2L2 Pairing with respect to wild type [21]: 28.2%

Substance: SGN-CD19a heavy chain K145T_V177D_S188D (H2 of design 3122, systems B and C)
- % H2L2 Pairing [22]: 89.7%
- Change in % H2L2 Pairing with respect to wild type [22]: 52.1%
- % H2L2 Pairing [23]: 99.8%
- Change in % H2L2 Pairing with respect to wild type [23]: 39.9%

Substance: SGN-CD19a heavy chain L124E_K145T_Q179E (H2 of designs 3102 and 3113, systems B and C)
- % H2L2 Pairing [24]: 99.8%
- Change in % H2L2 Pairing with respect to wild type [24]: 39.9%
- % H2L2 Pairing [25]: 92.8%
- Change in % H2L2 Pairing with respect to wild type [25]: 55.2%
- % H2L2 Pairing [26]: 90.9%
- Change in % H2L2 Pairing with respect to wild type [26]: 53.3%
- % H2L2 Pairing [27]: 99.6%
- Change in % H2L2 Pairing with respect to wild type [27]: 39.7%

Substance: SGN-CD19a heavy chain L143E_K145T_K228D (H2 of design 3890, system B)
- % H2L2 Pairing [28]: 51.3%
- Change in % H2L2 Pairing with respect to wild type [28]: -2.9%

Substance: SGN-CD19a heavy chain L143E_K145T_S188L (H2 of design 3878, systems B and C)
- % H2L2 Pairing [29]: 67.4%
- Change in % H2L2 Pairing with respect to wild type [29]: 7.5%
- % H2L2 Pairing [30]: 28.7%
- Change in % H2L2 Pairing with respect to wild type [30]: -8.9%

Substance: SGN-CD19a heavy chain S188K (H2 of design 3025, systems B and C)
- % H2L2 Pairing [31]: 99.7%
- Change in % H2L2 Pairing with respect to wild type [31]: 20.1%
- % H2L2 Pairing [32]: 87.9%
- Change in % H2L2 Pairing with respect to wild type [32]: 33.7%

— patent publication US20190338048A1
